# Measurements taken from US20120183545A1 (Merck KGaA, published 2012).
# T1: human CD20 antigen on Daudi lymphoma cells (human) (UniProt P11836)
# T1 sequence (looked up): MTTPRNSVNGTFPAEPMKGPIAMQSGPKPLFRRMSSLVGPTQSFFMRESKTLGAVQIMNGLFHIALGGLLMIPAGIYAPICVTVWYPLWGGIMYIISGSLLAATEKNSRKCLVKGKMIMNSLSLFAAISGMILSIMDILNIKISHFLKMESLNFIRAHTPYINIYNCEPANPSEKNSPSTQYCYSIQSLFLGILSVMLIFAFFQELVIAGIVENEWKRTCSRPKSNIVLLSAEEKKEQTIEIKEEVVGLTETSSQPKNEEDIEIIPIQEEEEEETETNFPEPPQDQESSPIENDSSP
# B1: human CD20 antigen on Daudi lymphoma cells (other, UniProt P11836 1-297, looked up)
# chain: MTTPRNSVNGTFPAEPMKGPIAMQSGPKPLFRRMSSLVGPTQSFFMRESKTLGAVQIMNGLFHIALGGLLMIPAGIYAPICVTVWYPLWGGIMYIISGSLLAATEKNSRKCLVKGKMIMNSLSLFAAISGMILSIMDILNIKISHFLKMESLNFIRAHTPYINIYNCEPANPSEKNSPSTQYCYSIQSLFLGILSVMLIFAFFQELVIAGIVENEWKRTCSRPKSNIVLLSAEEKKEQTIEIKEEVVGLTETSSQPKNEEDIEIIPIQEEEEEETETNFPEPPQDQESSPIENDSSP
# notes: whole, on cells; also called Bp35
# Columns and labels:
# [1] = biological target: T1, human CD20 antigen on Daudi lymphoma cells (human); assay: flow cytometry on Daudi cells; antibody at 1.25 g/ml as printed
# [2] = biological target: T1, human CD20 antigen on Daudi lymphoma cells (human); assay: flow cytometry on Daudi cells; antibody at 0.625 g/ml as printed
# [3] = biological target: T1, human CD20 antigen on Daudi lymphoma cells (human); assay: flow cytometry on Daudi cells; antibody at 2.5 g/ml as printed
# [4] = biological target: T1, human CD20 antigen on Daudi lymphoma cells (human); assay: flow cytometry on Daudi cells; antibody at 0.313 g/ml as printed
# [5] = biological target: T1, human CD20 antigen on Daudi lymphoma cells (human); assay: flow cytometry on Daudi cells; antibody at 10 g/ml as printed
# [6] = biological target: T1, human CD20 antigen on Daudi lymphoma cells (human); assay: flow cytometry on Daudi cells; antibody at 0.078 g/ml as printed
# [7] = biological target: T1, human CD20 antigen on Daudi lymphoma cells (human); assay: flow cytometry on Daudi cells; antibody at 5 g/ml as printed
# [8] = biological target: T1, human CD20 antigen on Daudi lymphoma cells (human); assay: flow cytometry on Daudi cells; antibody at 0.156 g/ml as printed
# IL-2 Rβ on TF-1β cells = IL-2 Rβ on TF-1β cells (UniProt P14784); assay: cell-based or functional assay
# [9] = biological target: high affinity IL-2R on a mouse cell line (CTLL-2) (mouse) (UniProt P01590); assay: cell-based or functional assay
# [10] = biological target: T2, Leu16VhY/VkZ-IL2 (anti-CD20 PC2) (human, UniProt P60568 21-153); assay: flow cytometry on Daudi cells
# T2 construct: Antibody-IL2 fusion (immunocytokine), glycosylated; also called AbVhY/VkZ-IL2; Ab(VhY/VkZ)-IL2; not shown: human kappa light chain constant region
# Description: (§1) Approximately 10⁶ Daudi cells were used with various concentrations of antibody or antibody-IL2 fusion protein in a 100 μl volume, for each sample tested.
# [11] = biological target: B1; assay: flow cytometry on Daudi cells, FIG. 6 Panel A
# Description: FIG. 6 illustrates the anti-CD20 binding activity of CD20-binding polypeptide compositions and immunocytokines (ICs). Human Daudi lymphoma cells were incubated with varying concentrations of polypeptide compositions and ICs and relative binding to the cells was assessed by flow cytometry, as described in Example 2.
# as §1
# high affinity IL-2R on a mouse cell line (CTLL-2) (mouse), sequence (P01590 22-268, chain 1 of 3): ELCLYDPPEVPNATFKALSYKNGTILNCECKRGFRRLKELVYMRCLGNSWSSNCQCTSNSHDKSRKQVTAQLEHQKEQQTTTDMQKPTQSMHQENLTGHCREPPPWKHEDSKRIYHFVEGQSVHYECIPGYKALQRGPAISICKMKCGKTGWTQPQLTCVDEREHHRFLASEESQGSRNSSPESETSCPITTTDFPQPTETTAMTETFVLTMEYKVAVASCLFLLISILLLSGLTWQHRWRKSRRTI
# high affinity IL-2R on a mouse cell line (CTLL-2) (mouse), sequence (P16297 27-539, chain 2 of 3, further chain): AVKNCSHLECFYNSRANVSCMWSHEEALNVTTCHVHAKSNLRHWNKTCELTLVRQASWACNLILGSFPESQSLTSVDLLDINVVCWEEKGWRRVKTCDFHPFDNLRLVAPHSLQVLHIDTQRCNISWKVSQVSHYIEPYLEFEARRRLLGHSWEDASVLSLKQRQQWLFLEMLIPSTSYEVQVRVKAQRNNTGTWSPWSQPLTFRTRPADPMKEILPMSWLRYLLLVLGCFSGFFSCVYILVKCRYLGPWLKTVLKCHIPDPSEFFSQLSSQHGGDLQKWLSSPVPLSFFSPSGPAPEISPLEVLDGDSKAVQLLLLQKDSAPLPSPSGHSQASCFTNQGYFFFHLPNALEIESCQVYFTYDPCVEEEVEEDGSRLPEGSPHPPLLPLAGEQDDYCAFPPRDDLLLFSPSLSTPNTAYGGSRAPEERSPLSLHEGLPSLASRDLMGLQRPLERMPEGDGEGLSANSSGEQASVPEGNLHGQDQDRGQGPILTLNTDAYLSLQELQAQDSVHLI
# high affinity IL-2R on a mouse cell line (CTLL-2) (mouse), sequence (P34902 23-369, chain 3 of 3, further chain): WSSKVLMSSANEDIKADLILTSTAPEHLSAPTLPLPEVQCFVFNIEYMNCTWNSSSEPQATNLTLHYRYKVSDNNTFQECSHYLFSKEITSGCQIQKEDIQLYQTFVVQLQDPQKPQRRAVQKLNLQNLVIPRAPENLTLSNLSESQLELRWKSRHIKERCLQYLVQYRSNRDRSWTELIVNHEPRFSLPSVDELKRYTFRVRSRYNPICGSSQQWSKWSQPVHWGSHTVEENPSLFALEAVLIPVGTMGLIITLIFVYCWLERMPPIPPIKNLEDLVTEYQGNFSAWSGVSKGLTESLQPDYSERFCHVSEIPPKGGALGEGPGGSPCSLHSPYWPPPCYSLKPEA
# T2 sequence (P60568 21-153 limits assumed): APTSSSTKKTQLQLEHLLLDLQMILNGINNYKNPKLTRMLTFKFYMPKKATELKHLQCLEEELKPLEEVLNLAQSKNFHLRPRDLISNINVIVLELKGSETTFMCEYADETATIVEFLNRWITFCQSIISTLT
# IL-2 Rβ on TF-1β cells, sequence (P14784 27-551): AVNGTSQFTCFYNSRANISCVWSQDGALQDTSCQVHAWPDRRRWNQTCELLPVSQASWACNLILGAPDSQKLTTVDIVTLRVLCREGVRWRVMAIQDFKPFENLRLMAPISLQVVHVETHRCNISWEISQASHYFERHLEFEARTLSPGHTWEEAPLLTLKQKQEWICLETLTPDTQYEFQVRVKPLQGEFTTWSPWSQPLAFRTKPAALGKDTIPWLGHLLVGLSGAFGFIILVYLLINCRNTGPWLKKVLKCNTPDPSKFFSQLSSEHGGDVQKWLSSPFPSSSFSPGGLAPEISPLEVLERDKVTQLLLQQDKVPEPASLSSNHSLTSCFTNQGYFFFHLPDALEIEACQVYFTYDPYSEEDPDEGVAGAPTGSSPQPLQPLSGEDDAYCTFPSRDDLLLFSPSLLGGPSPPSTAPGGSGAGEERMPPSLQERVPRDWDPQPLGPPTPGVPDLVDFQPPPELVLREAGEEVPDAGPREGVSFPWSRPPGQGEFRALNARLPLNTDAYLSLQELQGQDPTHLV
molecule,measurement,setting,value
2B8-IL2 fusion protein,mean fluorescence intensity,[1],369
same,mean fluorescence intensity,[2],229
same,mean fluorescence intensity,[3],513
same,mean fluorescence intensity,[4],147
same,mean fluorescence intensity,[5],857
same,mean fluorescence intensity,[6],52.1
same,mean fluorescence intensity,[7],720
same,mean fluorescence intensity,[8],85.3
"KS-IL2, anti-EpCAM antibody fused to human IL-2 at the C-terminus of the antibody heavy chains (from UniProt P60568 21-153)",TF-1β ED50,IL-2 Rβ on TF-1β cells,0.51 ng/mL
same,CTLL-2 ED50,[9],1.71 ng/mL
human rIL-2 (from UniProt P60568 21-153) (ligand),CTLL-2 ED50,[9],0.65 ng/mL
B1,binding result,[10],binds
"Leu16VhY/VkZ (anti-CD20 PC1) (antibody, IgG1, V domains shown, Chimeric IgG1/kappa antibody; also called DILeu16; DI-Leu16 antibody; not shown: human kappa light chain constant region) VH: EVQLQQSGAELKKPGASVKVSCKASGYTFTSYNMHWVKQTPGQGLEWIGAIYPGNGDTSYNQKFKGKTTLTADKSSSTAYMELSSLRSEDTAVYYCARSNYYGSSYWFFDVWGTGTTVTVSS VL: DIVLTQSPAIITASPGEKVTMTCRASSSVNYMDWYQKKPGSSPKPWIYATSNLASGVPSRFSGSGSGTTYSMTISSLEAEDAATYYCQQWSFNPPTFGGGTKLEIK",binding result,[11],binds
